As usually defined, the IC50 is the midpoint of a concentration-inhibition curve. Usually Kd stands for a measure of binding affinity in units of concentration.

Where only a bound is given, the exact number is not on record here.

One experiment deals with HLA-A*02:01. Nature of the experiment: IEDB peptide-MHC binding, purified MHC/competitive/radioactivity; ≥ and ≤ were set here for values at or beyond the usual limits of such assays. The following applies: source organism: Homo sapiens.
Take FVTWHRYHL: the half-maximal inhibitory concentration (IC50) turned out to be 0.943 µM.
Turning to ALVGLFVLL, the IC50 was 0.026 µM.
As for TLDSQVMSL, the IC50 was determined as 0.161 µM.
The same measure, in the same setting: as for TLVALVGLFV, the figure is 0.029 µM.
Regarding TLLVVMGTLV, the IC50 amounted to 0.357 µM.
In the case of VTWHRYHLL, the IC50 came to 0.161 µM.
Still for that read-out and setting: as for QVMSLHNLV, the figure is 0.676 µM; as for LIGNESFAL, 0.385 µM; as for VLHSFTDAI, 0.417 µM.

For a further experiment, the target named is HLA-A*02:01. The experiment can be described thus: IEDB peptide-MHC binding, purified MHC/competitive/radioactivity; filed as Kd, often an IC50 or EC50 that approximates it; ≥ and ≤ were set here for values at or beyond the usual limits of such assays. The following applies: source organism: Homo sapiens.
In the case of STFSFRNAL, the Kd is no less than 10 µM.
ALPYWNFAT: the Kd turned out to be 1.35 µM.
Take LLSCLGCKI: the Kd was 3.57 µM.
Take TTQHWLGLL: the dissociation constant (Kd) is no less than 10 µM.
Take QMGRNSMKL: the dissociation constant Kd was no less than 10 µM.
As for LLVVMGTLV, the Kd was determined as 1.35 µM.
On to NCSVYDFFV, for which the Kd is no less than 10 µM.
With YTPLMETHL, the Kd is no less than 10 µM.
As to LLAFLQYRRL, the dissociation constant Kd amounted to 1.52 µM.
Consider CLERDLQRL, for which the Kd was no less than 10 µM.
For the sequence AANDPIFVV, the Kd is no less than 10 µM.
Turning to ATGRNECDV, the Kd is no less than 10 µM.
ALDLAKKRV: the Kd was no less than 10 µM.
Same read-out and setting: as for VCMTVDSLV, the figure is 7.14 µM; as for QLGYSYAIDL, 2.63 µM.
On the same count and under the same terms, as for QGRGQCTEV, the figure is no less than 10 µM; as for VALVGLFVL, 7.14 µM.
Consider WLGLLGPNG, for which the Kd is no less than 10 µM.
For the sequence GAQGQFPRV, the Kd is no less than 10 µM.
Still for that read-out and setting: as for LAFLQYRRL, the figure is no less than 10 µM.
As for AARPDDPTL, the Kd was no less than 10 µM.
For the sequence NCERKKPPV, the Kd is no less than 10 µM.
For TLLVVMGTL, the Kd was determined as 2.63 µM.
On to WMKRFNPPA, for which the Kd is 8.33 µM.
Consider SAANDPIFV, for which the Kd was 4.54 µM.
Take GTLVALVGL: the Kd is 4.54 µM.
As to ITTQHWLGL, the Kd is no less than 10 µM.
Consider LLSCLGCKIL, for which the Kd is no less than 10 µM.
